Positions count from the first letter of the chain named. In names and notes the source's numbering stands.
B1: MYT0482 (antibody, V domains shown)
VH: EVQLVQSGAEVKKPGSSVKVSCKASHYTITDSNIHWVRQAPGQSLEWIGYIYPYNGGTDYNQKFKNRATLTVDNPTNTAYMELSSLRSEDTDFYYCVNGNPWLAYWGQGTLVTVSS
VL: DIQLTQSPSTLSASVGDRVTITCRASESLDNYGIRFLTWFQQKPGKAPKLLMYAASNQGSGVPSRFSGSGSGTEFTLTISSLQPDDFATYYCQQTKEVPWSFGQGTKVEVK
notes: IgG; gemtuzumab VH variant #1 (G26H)
B2: MYT0487 (antibody, V domains shown)
VH: B1 VH with H26G, D31H
VL: B1 VL
notes: IgG; gemtuzumab VH variant #6 (D31H)
B3: MYT0485 (antibody, V domains shown)
VH: B1 VH with H26G, I29H
VL: B1 VL
notes: IgG; gemtuzumab VH variant #4 (I29H)
B4: MYT0486 (antibody, V domains shown)
VH: B1 VH with H26G, T30H
VL: B1 VL
notes: IgG; gemtuzumab VH variant #5 (T30H)
B5: MYT0488 (antibody, V domains shown)
VH: B1 VH with H26G, S32H
VL: B1 VL
notes: IgG; gemtuzumab VH variant #7 (S32H)
B6: MYT0483 (antibody, V domains shown)
VH: B1 VH with H26G, Y27H
VL: B1 VL
notes: IgG; gemtuzumab VH variant #2 (Y27H)
B7: MYT0484 (antibody, V domains shown)
VH: B1 VH with H26G, T28H
VL: B1 VL
notes: IgG; gemtuzumab VH variant #3 (T28H)
B8: MYT1366 (antibody, V domains shown)
VH: QVQLVQSGAEVKKPGASVKVSCKASGYTFTNYDINWVRQAPGQGLEWIGWIYPGDGSTKYNEKFKAKATLTADTSTSTAYMELRSLRSDDTAVYYCASGYHDAMDYWGQGTTVTVSS
VL: DIQMTQSPSSLSASVGDRVTINCKASQDINSYLSWFQQKPGKAPKTLIYRANRLVDGVPSRFSGSGSGQDYTLTISSLQPEDFATYYCLQYDEFPLTFGGGTKVEIK
notes: IgG; vadastuximab VH variant #32 (E101H)
B9: MYT2666 (antibody, V domains shown)
VH: B8 VH with H101E
VL: B8 VL with N52H
notes: IgG; vadastuximab VL variant #14 (N52H)
B10: MYT2671 (antibody, V domains shown)
VH: B8 VH with H101E
VL: B8 VL with L89H
notes: IgG; vadastuximab VL variant #19 (L89H)
B11: MYT2665 (antibody, V domains shown)
VH: B8 VH with H101E
VL: B8 VL with A51H
notes: IgG; vadastuximab VL variant #13 (A51H)
B12: MYT2662 (antibody, V domains shown)
VH: B8 VH with H101E
VL: B8 VL with L33H
notes: IgG; vadastuximab VL variant #10 (L33H)
B13: MYT2653 (antibody, V domains shown)
VH: B8 VH with H101E
VL: B8 VL with K24H
notes: IgG; vadastuximab VL variant #1 (K24H)
B14: MYT2669 (antibody, V domains shown)
VH: B8 VH with H101E
VL: B8 VL with V55H
notes: IgG; vadastuximab VL variant #17 (V55H)
B15: MYT2659 (antibody, V domains shown)
VH: B8 VH with H101E
VL: B8 VL with N30H
notes: IgG; vadastuximab VL variant #7 (N30H)
B16: MYT2674 (antibody, V domains shown)
VH: B8 VH with H101E
VL: B8 VL with D92H
notes: IgG; vadastuximab VL variant #22 (D92H)
B17: MYT2660 (antibody, V domains shown)
VH: B8 VH with H101E
VL: B8 VL with S31H
notes: IgG; vadastuximab VL variant #8 (S31H)
B18: MYT2649 (antibody, V domains shown)
VH: B8 VH with F29H, T30H, H101E
VL: B8 VL
notes: IgG; vadastuximab VH combination #1 (F29H+T30H)
B19: MYT2654 (antibody, V domains shown)
VH: B8 VH with H101E
VL: B8 VL with A25H
notes: IgG; vadastuximab VL variant #2 (A25H)
B20: MYT2655 (antibody, V domains shown)
VH: B8 VH with H101E
VL: B8 VL with S26H
notes: IgG; vadastuximab VL variant #3 (S26H)
B21: MYT2679 (antibody, V domains shown)
VH: B8 VH with H101E
VL: B8 VL with T97H
notes: IgG; vadastuximab VL variant #27 (T97H)
B22: MYT2677 (antibody, V domains shown)
VH: B8 VH with H101E
VL: B8 VL with P95H
notes: IgG; vadastuximab VL variant #25 (P95H)
B23: MYT2667 (antibody, V domains shown)
VH: B8 VH with H101E
VL: B8 VL with R53H
notes: IgG; vadastuximab VL variant #15 (R53H)
B24: MYT2668 (antibody, V domains shown)
VH: B8 VH with H101E
VL: B8 VL with L54H
notes: IgG; vadastuximab VL variant #16 (L54H)
B25: MYT2656 (antibody, V domains shown)
VH: B8 VH with H101E
VL: B8 VL with Q27H
notes: IgG; vadastuximab VL variant #4 (Q27H)
B26: MYT2676 (antibody, V domains shown)
VH: B8 VH with H101E
VL: B8 VL with F94H
notes: IgG; vadastuximab VL variant #24 (F94H)
B27: MYT1370 (antibody, V domains shown)
VH: B8 VH with H101E, D105H
VL: B8 VL
notes: IgG; vadastuximab VH variant #36 (D105H)
B28: MYT1371 (antibody, V domains shown)
VH: B8 VH with H101E, Y106H
VL: B8 VL
notes: IgG; vadastuximab VH variant #37 (Y106H)
B29: MYT2651 (antibody, V domains shown)
VH: B8 VH with T30H, H101E, D105H
VL: B8 VL
notes: IgG; vadastuximab VH combination #3 (T30H+D105H)
B30: MYT2672 (antibody, V domains shown)
VH: B8 VH with H101E
VL: B8 VL with Q90H
notes: IgG; vadastuximab VL variant #20 (Q90H)
B31: MYT2657 (antibody, V domains shown)
VH: B8 VH with H101E
VL: B8 VL with D28H
notes: IgG; vadastuximab VL variant #5 (D28H)
B32: MYT2664 (antibody, V domains shown)
VH: B8 VH with H101E
VL: B8 VL with R50H
notes: IgG; vadastuximab VL variant #12 (R50H)
B33: MYT2650 (antibody, V domains shown)
VH: B8 VH with F29H, H101E, D105H
VL: B8 VL
notes: IgG; vadastuximab VH combination #2 (F29H+D105H)
B34: MYT2652 (antibody, V domains shown)
VH: B8 VH with F29H, T30H, H101E, D105H
VL: B8 VL
notes: IgG; vadastuximab VH combination #4 (F29H+T30H+D105H)
B35: MYT2658 (antibody, V domains shown)
VH: B8 VH with H101E
VL: B8 VL with I29H
notes: IgG; vadastuximab VL variant #6 (I29H)
B36: MYT2675 (antibody, V domains shown)
VH: B8 VH with H101E
VL: B8 VL with E93H
notes: IgG; vadastuximab VL variant #23 (E93H)
B37: MYT2670 (antibody, V domains shown)
VH: B8 VH with H101E
VL: B8 VL with D56H
notes: IgG; vadastuximab VL variant #18 (D56H)

The binders below were run against T1, CD33 (Sino Biological, Cat #12238-H08H) (UniProt P20138 18-259) (assay: BLI, IgG captured on anti-human Fc sensor, 50 nM CD33, pH 7.4 vs pH 5.0).
T1 sequence (P20138 18-259 limits assumed): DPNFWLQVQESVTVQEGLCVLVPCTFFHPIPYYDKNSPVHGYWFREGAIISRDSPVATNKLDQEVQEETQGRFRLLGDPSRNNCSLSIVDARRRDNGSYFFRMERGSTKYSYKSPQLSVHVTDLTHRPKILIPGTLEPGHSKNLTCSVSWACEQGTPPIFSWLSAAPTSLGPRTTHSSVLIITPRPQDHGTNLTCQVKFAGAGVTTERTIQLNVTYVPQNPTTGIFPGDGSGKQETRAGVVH
Text: Multiple CD33-binding monoclonal antibodies have been described in the literature and can be used as a template for engineering pH-dependent binding (Hamann P R et al (2002) “Gemtuzumab ozogamicin, a potent and selective anti-CD33 antibody-calicheamicin conjugate for treatment of acute myeloid leukemia.” Bioconjug Chem 13(1):47-58). Gemtuzumab (Heavy chain SEQ ID NO: 1, Light chain SEQ ID NO: 2) was selected as a CD33-binding monoclonal antibody for pH engineering via histidine scanning. Briefly, CDRs in the heavy chain were identified using the methods described by Kabat et al (Kabat et al. (1992) Sequences of Proteins of Immunological Interest, DIANE publishing) and IMGT (Lefranc M P (1999) “The IMGT unique numbering for Immunoglobulins, T cell receptors and Ig-like domains” The Immunologist 7, 132-136), and for each CDR, residues falling under either or both Kabat and IMGT CDR definitions were called as CDR residues. To generate pH-dependent sequence variants, individual amino acid residues within the heavy chain CDRs were systematically substituted with a histidine, one at a time (MYT0482-MYT0517). In cases where the starting CDR residue was a histidine, it was mutated to an alanine. Antibody variants with only one histidine or alanine mutation in a heavy chain CDR were generated by co-transfection of Expi293 cells with a) one heavy chain sequence variant, and b) the corresponding starting ABPC light chain using methods known to the art. After allowing for four days of protein expression, cell culture supernatants were collected, quantified by SDS-PAGE analysis, (FIG. 1), and the pH dependence of the variant was evaluated using biolayer interferometry (BLI) on an Octet RED 384 instrument. Briefly, cell culture supernatants were normalized to an antibody expression level of 25 μg/mL, and captured on an anti-human Fc sensor (Forte Bio). A baseline was established using 1×PBST (50 mM Potassium Phosphate Buffer+150 mM NaCl+0.05% Tween 20) pH 7.4, and the sensor was associated with 50 nM of CD33 (Sino Biological, Cat #12238) in 1×PBST pH 7.4 for 120 sec to generate an association curve. In the dissociation phase, the antibody-antigen complex on the sensor was exposed to 1×PBST pH 7.4 for 300-600 sec. Baseline, association, and dissociation were repeated using 1×MES (100 mM MES Buffer+150 mM NaCl+0.05% Tween 20) pH 5.0 throughout in a separate condition.

Binding result, binds:
B1
B2
B3
B4
B5
B6
B7

These binders were tested against T1, CD33 (Sino Biological, Cat #12238-H08H) (assay: BLI, IgG captured on anti-human Fc sensor, 50 nM CD33, pH 7.4 vs pH 5.4).

Binding result, binds:
B8
B9
B10
B11
B12
B13
B14
B15
B16
B17
B18
B19
B20
B21
B22
B23
B24
B25
B26
B27
B28
B29
B30
B31
B32
B33
B34
B35
B36
B37

From patent US20220324969A1 (MYTHIC THERAPEUTICS, published 2022)
